Experimental data taken from patent US20210040184A1 (ATRECA, published 2021).
Substitutions are numbered along the chain they refer to.

B1: Germ17 (antibody, V domains shown)
VH: QVDLVQSGAVVKKPGDSVRVSCEAQGYRFPDYIIHWIRRAPGQGPEWMGWMNPMGGQVNIPWKFQGRVSMTRDTSIETAYMDLRGLRSDDTAVYYCVRDRSNGSGKRFESSNWFLDLWGRGTLVTVSS
VL: QSALTQPRSVSGSPGQSVTISCTGTHNLVSWCQHHPGKAPKLMIYDFNKRPSGVPDRFSGSGSGGTASLTISGLQAEDEAEYFCWAYEAFGGGTKLTVL
B2: Germ23 (antibody, V domains shown)
VH: B1 VH with D3Q, V10E, D16A, R19K, Q25S, D82E
VL: B1 VL
B3: NglycoSA (antibody, V domains shown)
VH: ADLVQSGAVVKKPGDSVRISCEAQGYRFPDYIIHWIRRAPGQGPEWMGWMNPMGGQVNIPWKFQGRVSMTRDTSIETAFLDLRGLKSDDTAVYYCVRDRSNGAGKRFESSNWFLDLWGRGTAVTIQS
VL: B1 VL with G12A, H35Q, K38R, M43L, S72T, A76D, E77D, E79D
B4: CysCA (antibody, V domains shown)
VH: B3 VH with A103S
VL: B1 VL with G12A, C32A, H35Q, K38R, M43L, S72T, A76D, E77D, E79D
B5: CysCV (antibody, V domains shown)
VH: B3 VH with A103S
VL: B1 VL with G12A, C32V, H35Q, K38R, M43L, S72T, A76D, E77D, E79D
B6: Hydro2 (antibody, V domains shown)
VH: B3 VH with W61Q, A103S
VL: B1 VL with G12A, H35Q, K38R, M43L, S72T, A76D, E77D, E79D, A89N
B7: Germ12_NglycoSA_CysCA (antibody, V domains shown)
VH: B1 VH with S104A
VL: B1 VL with C32A, H35Q, K38R, M43L, A76D, E79D
B8: Germ12_NglycoSA_CysCV (antibody, V domains shown)
VH: B1 VH with S104A
VL: B1 VL with C32V, H35Q, K38R, M43L, A76D, E79D
B9: Germ23_NglycoSA_CysCV (antibody, V domains shown)
VH: B1 VH with D3Q, V10E, D16A, R19K, Q25S, D82E, S104A
VL: B1 VL with C32V
B10: Cd4bs_H53MS_H54GY (antibody, V domains shown)
VH: B3 VH with M53S, G54Y, A103S
VL: B1 VL with G12A, H35Q, K38R, M43L, S72T, A76D, E77D, E79D
B11: Germ6 (antibody, V domains shown)
VH: B3 VH with I19V, F79Y, A103S, I125V
VL: B1 VL with H35Q, K38R, M43L, A76D, E79D
B12: Germ12 (antibody, V domains shown)
VH: B1 VH
VL: B1 VL with H35Q, K38R, M43L, A76D, E79D
B13: Germ18 (antibody, V domains shown)
VH: B1 VH with D3Q, V10E, D16A, R19K, Q25S, D82E
VL: B1 VL with H35Q, K38R, M43L, A76D, E79D

The binders below were run against HIV-1 DU422.1 envelope (Env) on Env.IMC.LucR virus (HIV-1 clade C) (assay: cell-based or functional assay).

Point of comparison: B10, “IC50 of virus neutralization (TZM-BL, luciferase)” value (from here on “IC50 of virus neutralization”) 0.89 µg/mL. Against it:
- B1 — higher, > 50 µg/mL
- B2 — higher, > 50 µg/mL
- B3 — higher, > 50 µg/mL
- B4 — higher, > 50 µg/mL
- B5 — higher, > 50 µg/mL
- B6 — higher, > 50 µg/mL
- B7 — higher, > 50 µg/mL
- B8 — higher, > 50 µg/mL
- B9 — higher, > 50 µg/mL
- B11 — higher, > 50 µg/mL
- B12 — higher, > 50 µg/mL
- B13 — higher, > 50 µg/mL

These binders were tested against HIV-1 CAP45.2.00.G3 envelope (Env) on Env.IMC.LucR virus (HIV-1 clade C) (assay: cell-based or functional assay).

Point of comparison: B6, “IC50 of virus neutralization” value 0.039 µg/mL. Against it:
- B1 — within 1.5-fold, 0.037 µg/mL
- B2 — within 1.5-fold, 0.035 µg/mL
- B3 — within 1.5-fold, 0.037 µg/mL
- B4 — within 1.5-fold, 0.035 µg/mL
- B5 — within 1.5-fold, 0.035 µg/mL
- B7 — within 1.5-fold, 0.042 µg/mL
- B8 — within 1.5-fold, 0.047 µg/mL
- B9 — within 1.5-fold, 0.05 µg/mL
- B10 — within 1.5-fold, 0.03 µg/mL
- B11 — 3.5-fold higher, 0.135 µg/mL
- B12 — 1.6-fold higher, 0.063 µg/mL
- B13 — within 1.5-fold, 0.036 µg/mL

Each binder was assayed against HIV-1 X1632_S2_B10 envelope (Env) on Env.IMC.LucR virus (HIV-1 clade G) (assay: cell-based or functional assay).

Point of comparison: B10, “IC50 of virus neutralization” value 9.87 µg/mL. Against it:
- B1 — higher, > 50 µg/mL
- B2 — higher, > 50 µg/mL
- B3 — higher, > 50 µg/mL
- B4 — higher, > 50 µg/mL
- B5 — higher, > 50 µg/mL
- B6 — higher, > 50 µg/mL
- B7 — higher, > 50 µg/mL
- B8 — higher, > 50 µg/mL
- B9 — higher, > 50 µg/mL
- B11 — higher, > 50 µg/mL
- B12 — higher, > 50 µg/mL
- B13 — higher, > 50 µg/mL

What follows are binders tested against HIV-1 WITO4160.33 envelope (Env) on Env.IMC.LucR virus (HIV-1 clade B) (assay: cell-based or functional assay).

Point of comparison: B3, “IC50 of virus neutralization” value 0.179 µg/mL. Against it:
- B5 — within 1.5-fold, 0.186 µg/mL
- B8 — 2.7-fold higher, 0.488 µg/mL
- B10 — within 1.5-fold, 0.15 µg/mL

What follows are binders tested against HIV-1 REJO4541.67 envelope (Env) on Env.IMC.LucR virus (HIV-1 clade B) (assay: cell-based or functional assay).

Point of comparison: B7, “IC50 of virus neutralization” value 0.028 µg/mL. Against it:
- B1 — within 1.5-fold, 0.033 µg/mL
- B2 — within 1.5-fold, 0.037 µg/mL
- B3 — within 1.5-fold, 0.04 µg/mL
- B4 — lower, ≤ 0.02 µg/mL
- B5 — lower, ≤ 0.02 µg/mL
- B6 — lower, ≤ 0.02 µg/mL
- B8 — lower, ≤ 0.02 µg/mL
- B9 — lower, ≤ 0.02 µg/mL
- B10 — 1.6-fold higher, 0.044 µg/mL
- B11 — 2.2-fold higher, 0.062 µg/mL
- B12 — 3.3-fold higher, 0.092 µg/mL
- B13 — within 1.5-fold, 0.039 µg/mL

What follows are binders tested against HIV-1 AC10.0.29 envelope (Env) on Env.IMC.LucR virus (HIV-1 clade B) (assay: cell-based or functional assay).

Point of comparison: B10, “IC50 of virus neutralization” value 3 µg/mL. Against it:
- B1 — higher, > 50 µg/mL
- B2 — higher, > 50 µg/mL
- B3 — higher, > 50 µg/mL
- B4 — higher, > 50 µg/mL
- B5 — higher, > 50 µg/mL
- B6 — higher, > 50 µg/mL
- B7 — higher, > 50 µg/mL
- B8 — higher, > 50 µg/mL
- B9 — higher, > 50 µg/mL
- B11 — higher, > 50 µg/mL
- B12 — higher, > 50 µg/mL
- B13 — higher, > 50 µg/mL

The binders below were run against HIV-1 CNE20 envelope (Env) on Env.IMC.LucR virus (HIV-1 clade BC) (assay: cell-based or functional assay).

Point of comparison: B1, “IC50 of virus neutralization” value 0.081 µg/mL. Against it:
- B2 — within 1.5-fold, 0.066 µg/mL
- B3 — 1.6-fold lower, 0.05 µg/mL
- B4 — 2.4-fold lower, 0.034 µg/mL
- B5 — 2.2-fold lower, 0.037 µg/mL
- B6 — 1.7-fold lower, 0.049 µg/mL
- B7 — within 1.5-fold, 0.062 µg/mL
- B8 — within 1.5-fold, 0.059 µg/mL
- B9 — within 1.5-fold, 0.064 µg/mL
- B10 — 1.7-fold lower, 0.047 µg/mL
- B11 — within 1.5-fold, 0.091 µg/mL
- B12 — 3-fold higher, 0.244 µg/mL
- B13 — the same, 0.081 µg/mL

Each binder was assayed against HIV-1 DU172.17 envelope (Env) on Env.IMC.LucR virus (HIV-1 clade C) (assay: cell-based or functional assay).

Point of comparison: B2, “IC50 of virus neutralization” value 0.182 µg/mL. Against it:
- B1 — 1.6-fold lower, 0.117 µg/mL
- B3 — 1.7-fold lower, 0.11 µg/mL
- B4 — within 1.5-fold, 0.169 µg/mL
- B5 — 1.8-fold lower, 0.102 µg/mL
- B6 — within 1.5-fold, 0.131 µg/mL
- B7 — 2.1-fold lower, 0.088 µg/mL
- B8 — 3.9-fold higher, 0.714 µg/mL
- B9 — 4.6-fold higher, 0.831 µg/mL
- B10 — 1.5-fold higher, 0.273 µg/mL
- B11 — 1.8-fold lower, 0.102 µg/mL
- B12 — within 1.5-fold, 0.267 µg/mL
- B13 — within 1.5-fold, 0.223 µg/mL

What follows are binders tested against HIV-1 THRO4156.18 envelope (Env) on Env.IMC.LucR virus (HIV-1 clade B) (assay: cell-based or functional assay).

Point of comparison: B5, “IC50 of virus neutralization” value 1.4 µg/mL. Against it:
- B3 — 1.5-fold lower, 0.929 µg/mL
- B8 — 8.4-fold higher, 11.7 µg/mL

These binders were tested against HIV-1 ZM233M.PB6 envelope (Env) on Env.IMC.LucR virus (HIV-1 clade C) (assay: cell-based or functional assay).

Point of comparison: B3, “IC50 of virus neutralization” value 0.151 µg/mL. Against it:
- B5 — 1.9-fold lower, 0.079 µg/mL
- B8 — 4.8-fold higher, 0.731 µg/mL
- B10 — 1.6-fold lower, 0.096 µg/mL
